Patent US8748182B2, “Mutant proteins and methods for producing them” (Heptares Therapeutics Limited, priority 2007, dated 2014)
Positions count from the first letter of the chain named. Numbers in names are those of the source.

B1: A86L: NTR point mutant (protein, UniProt P20789 1-424, looked up, variant A86L)
Neurotensin receptor type 1: MHLNSSVPQGTPGEPDAQPFSGPQSEMEATFLALSLSNGSGNTSESDTAGPNSDLDVNTDIYSKVLVTAIYLALFVVGTVGNSVTLFTLARKKSLQSLQSTVHYHLGSLALSDLLILLLAMPVELYNFIWVHHPWAFGDAGCRGYYFLRDACTYATALNVASLSVERYLAICHPFKAKTLMSRSRTKKFISAIWLASALLAIPMLFTMGLQNRSGDGTHPGGLVCTPIVDTATVKVVIQVNTFMSFLFPMLVISILNTVIANKLTVMVHQAAEQGRVCTVGTHNGLEHSTFNMTIEPGRVQALRHGVLVLRAVVIAFVVCWLPYHVRRLMFCYISDEQWTTFLFDFYHYFYMLTNALFYVSSAINPILYNLVSANFRQVFLSTLACLCPGWRHRRKKRPTFSRKPNSMSSNHAFSTSATRETLY
B2: K397A: NTR point mutant (protein, UniProt P20789 1-424, looked up, variant K397A)
Neurotensin receptor type 1: B1 Neurotensin receptor type 1 with L86A, K397A
B3: V360A: NTR point mutant (protein, UniProt P20789 1-424, looked up, variant V360A)
Neurotensin receptor type 1: B1 Neurotensin receptor type 1 with L86A, V360A
B4: A69L: NTR point mutant (protein, UniProt P20789 1-424, looked up, variant A69L)
Neurotensin receptor type 1: B1 Neurotensin receptor type 1 with A69L, L86A
B5: Y349A: NTR point mutant (protein, UniProt P20789 1-424, looked up, variant Y349A)
Neurotensin receptor type 1: B1 Neurotensin receptor type 1 with L86A, Y349A
B6: G215A: NTR point mutant (protein, UniProt P20789 1-424, looked up, variant G215A)
Neurotensin receptor type 1: B1 Neurotensin receptor type 1 with L86A, G215A
B7: A177L: NTR point mutant (protein, UniProt P20789 1-424, looked up, variant A177L)
Neurotensin receptor type 1: B1 Neurotensin receptor type 1 with L86A, A177L
B8: T294A: NTR point mutant (protein, UniProt P20789 1-424, looked up, variant T294A)
Neurotensin receptor type 1: B1 Neurotensin receptor type 1 with L86A, T294A
B9: A385L: NTR point mutant (protein, UniProt P20789 1-424, looked up, variant A385L)
Neurotensin receptor type 1: B1 Neurotensin receptor type 1 with L86A, A385L
B10: G390A: NTR point mutant (protein, UniProt P20789 1-424, looked up, variant G390A)
Neurotensin receptor type 1: B1 Neurotensin receptor type 1 with L86A, G390A
B11: E166A: NTR point mutant (protein, UniProt P20789 1-424, looked up, variant E166A)
Neurotensin receptor type 1: B1 Neurotensin receptor type 1 with L86A, E166A
B12: V165A: NTR point mutant (protein, UniProt P20789 1-424, looked up, variant V165A)
Neurotensin receptor type 1: B1 Neurotensin receptor type 1 with L86A, V165A
B13: N370A: NTR point mutant (protein, UniProt P20789 1-424, looked up, variant N370A)
Neurotensin receptor type 1: B1 Neurotensin receptor type 1 with L86A, N370A
B14: H393A: NTR point mutant (protein, UniProt P20789 1-424, looked up, variant H393A)
Neurotensin receptor type 1: B1 Neurotensin receptor type 1 with L86A, H393A
B15: V309A: NTR point mutant (protein, UniProt P20789 1-424, looked up, variant V309A)
Neurotensin receptor type 1: B1 Neurotensin receptor type 1 with L86A, V309A
B16: L310A: NTR point mutant (protein, UniProt P20789 1-424, looked up, variant L310A)
Neurotensin receptor type 1: B1 Neurotensin receptor type 1 with L86A, L310A
B17: R395A: NTR point mutant (protein, UniProt P20789 1-424, looked up, variant R395A)
Neurotensin receptor type 1: B1 Neurotensin receptor type 1 with L86A, R395A
B18: R183A: NTR point mutant (protein, UniProt P20789 1-424, looked up, variant R183A)
Neurotensin receptor type 1: B1 Neurotensin receptor type 1 with L86A, R183A
B19: 1260A: NTR point mutant (Ile 260) (protein, UniProt P20789 1-424, looked up, variant I260A)
Neurotensin receptor type 1: B1 Neurotensin receptor type 1 with L86A, I260A
B20: M250A: NTR point mutant (protein, UniProt P20789 1-424, looked up, variant M250A)
Neurotensin receptor type 1: B1 Neurotensin receptor type 1 with L86A, M250A
B21: A73L: NTR point mutant (protein, UniProt P20789 1-424, looked up, variant A73L)
Neurotensin receptor type 1: B1 Neurotensin receptor type 1 with A73L, L86A
B22: F380A: NTR point mutant (protein, UniProt P20789 1-424, looked up, variant F380A)
Neurotensin receptor type 1: B1 Neurotensin receptor type 1 with L86A, F380A
B23: G306A: NTR point mutant (protein, UniProt P20789 1-424, looked up, variant G306A)
Neurotensin receptor type 1: B1 Neurotensin receptor type 1 with L86A, G306A
B24: C386A: NTR point mutant (protein, UniProt P20789 1-424, looked up, variant C386A)
Neurotensin receptor type 1: B1 Neurotensin receptor type 1 with L86A, C386A
B25: F342A: NTR point mutant (protein, UniProt P20789 1-424, looked up, variant F342A)
Neurotensin receptor type 1: B1 Neurotensin receptor type 1 with L86A, F342A
B26: P389A: NTR point mutant (protein, UniProt P20789 1-424, looked up, variant P389A)
Neurotensin receptor type 1: B1 Neurotensin receptor type 1 with L86A, P389A
B27: V313A: NTR point mutant (protein, UniProt P20789 1-424, looked up, variant V313A)
Neurotensin receptor type 1: B1 Neurotensin receptor type 1 with L86A, V313A
B28: S373A: NTR point mutant (protein, UniProt P20789 1-424, looked up, variant S373A)
Neurotensin receptor type 1: B1 Neurotensin receptor type 1 with L86A, S373A
B29: 1253A: NTR point mutant (Ile 253) (protein, UniProt P20789 1-424, looked up, variant I253A)
Neurotensin receptor type 1: B1 Neurotensin receptor type 1 with L86A, I253A
B30: L308A: NTR point mutant (protein, UniProt P20789 1-424, looked up, variant L308A)
Neurotensin receptor type 1: B1 Neurotensin receptor type 1 with L86A, L308A
B31: Nag7m: NTR with F358A+A86L+I260A+F342A (protein)
chain: TSESDTAGPNSDLDVNTDIYSKVLVTAIYLALFVVGTVGNSVTLFTLARKKSLQSLQSTVHYHLGSLALSDLLILLLAMPVELYNFIWVHHPWAFGDAGCRGYYFLRDACTYATALNVASLSVERYLAICHPFKAKTLMSRSRTKKFISAIWLASALLAIPMLFTMGLQNRSGDGTHPGGLVCTPIVDTATVKVVIQVNTFMSFLFPMLVISILNTVAANKLTVMVHQAAEQGRVCTVGTHNGLEHSTFNMTIEPGRVQALRHGVLVLRAVVIAFVVCWLPYHVRRLMFCYISDEQWTTALFDFYHYFYMLTNALAYVSSAINPILYNLVSANFRQVFLSTLACLCPGWRHRRKKRPTFSRKPNSMSSNHAFSTSATRETLY
B32: Nag7n: NTR with F358A+H103A+I260A+F342A (protein)
chain: B31 chain with L44A, H61A
B33: Wildtype NTR: wild-type rat neurotensin receptor (protein)
chain: B31 chain with L44A, A218I, A300F, A316F

Test: Thermostability of neurotensin receptor (NTR) mutants (3H-neurotensin binding)
Format: physicochemical
Conditions: for thermostability, heated in the presence of 3H-neurotensin: Ligand(+) format; for thermostability, 3H-neurotensin (agonist) binding after the heating step: heated in the absence of the agonist
Description: FIG. 12 Flow chart showing the two different assay formats of ligand (+) and ligand (−) used to determine receptor thermostablity.
3. Mutants tested for thermostability by heating in the absence of the agonist were re-tested using a slightly different assay where the mutants were heated in the presence of ^3H-neurotensin (Ligand(+) format in FIG. 12). […] All of these also have increased thermostability. • 5. Preferred combinations are • a. Nag7m F358A+A86L+1260A+F342A Tm 51° C. (neurotensin bound) • b. Nag7n F358A+H103A+1260A+F342A Tm 51° C. (neurotensin bound) • Wildtype NTR has a Tm of 35° C. with neurotensin bound.

Row | Molecule | thermostability, heated in the presence of 3H-neurotensin | thermostability, 3H-neurotensin (agonist) binding after the heating step | Tm (neurotensin bound) [°C]
1 | B1 | improved thermostability | small but significant increase in thermostability | 
2 | B2 |  | small but significant increase in thermostability | 
3 | B3 | improved thermostability |  | 
4 | B4 | improved thermostability |  | 
5 | B5 |  | small but significant increase in thermostability | 
6 | B6 | improved thermostability |  | 
7 | B7 | improved thermostability |  | 
8 | B8 | improved thermostability |  | 
9 | B9 | improved thermostability | small but significant increase in thermostability | 
10 | B10 | improved thermostability |  | 
11 | B11 | improved thermostability |  | 
12 | B12 | improved thermostability |  | 
13 | B13 | improved thermostability |  | 
14 | B14 |  | small but significant increase in thermostability | 
15 | B15 | improved thermostability |  | 
16 | B16 | improved thermostability |  | 
17 | B17 | improved thermostability |  | 

Row | Molecule | thermostability, heated in the presence of 3H-neurotensin | thermostability, 3H-neurotensin (agonist) binding after the heating step | Tm (neurotensin bound) [°C]
18 | B18 | improved thermostability |  | 
19 | B19 | improved thermostability |  | 
20 | B20 | improved thermostability |  | 
21 | B21 | improved thermostability |  | 
22 | B22 | improved thermostability |  | 
23 | B23 | improved thermostability |  | 
24 | B24 |  | small but significant increase in thermostability | 
25 | B25 | improved thermostability |  | 
26 | B26 | improved thermostability |  | 
27 | B27 | improved thermostability |  | 
28 | B28 | improved thermostability |  | 
29 | B29 | improved thermostability |  | 
30 | B30 | improved thermostability |  | 
31 | B31 |  |  | 51
32 | B32 |  |  | 51
33 | B33 |  |  | 35
